# B1: TNF receptor-associated factor 4 (Homo sapiens), Q9BUZ4 (parent)
# chain: MPGFDYKFLEKPKRRLLCPLCGKPMREPVQVSTCGHRFCDTCLQEFLSEGVFKCPEDQLPLDYAKIYPDPELEVQVLGLPIRCIHSEEGCRWSGPLRHLQGHLNTCSFNVIPCPNRCPMKLSRRDLPAHLQHDCPKRRLKCEFCGCDFSGEAYESHEGMCPQESVYCENKCGARMMRRLLAQHATSECPKRTQPCTYCTKEFVFDTIQSHQYQCPRLPVACPNQCGVGTVAREDLPGHLKDSCNTALVLCPFKDSGCKHRCPKLAMARHVEESVKPHLAMMCALVSRQRQELQELRRELEELSVGSDGVLIWKIGSYGRRLQEAKAKPNLECFSPAFYTHKYGYKLQVSAFLNGNGSGEGTHLSLYIRVLPGAFDNLLEWPFARRVTFSLLDQSDPGLAKPQHVTETFHPDPNWKNFQKPGTWRGSLDESSLGFGYPKFISHQDIRKRNYVRDDAVFIRAAVELPRKILS
# Variants of: B1
# Details: with SMURF1, Q9HCE7-2
# Sequence of SMURF1, Q9HCE7-2 (Q9HCE7 other isoform, or with tags, fused parts or gaps): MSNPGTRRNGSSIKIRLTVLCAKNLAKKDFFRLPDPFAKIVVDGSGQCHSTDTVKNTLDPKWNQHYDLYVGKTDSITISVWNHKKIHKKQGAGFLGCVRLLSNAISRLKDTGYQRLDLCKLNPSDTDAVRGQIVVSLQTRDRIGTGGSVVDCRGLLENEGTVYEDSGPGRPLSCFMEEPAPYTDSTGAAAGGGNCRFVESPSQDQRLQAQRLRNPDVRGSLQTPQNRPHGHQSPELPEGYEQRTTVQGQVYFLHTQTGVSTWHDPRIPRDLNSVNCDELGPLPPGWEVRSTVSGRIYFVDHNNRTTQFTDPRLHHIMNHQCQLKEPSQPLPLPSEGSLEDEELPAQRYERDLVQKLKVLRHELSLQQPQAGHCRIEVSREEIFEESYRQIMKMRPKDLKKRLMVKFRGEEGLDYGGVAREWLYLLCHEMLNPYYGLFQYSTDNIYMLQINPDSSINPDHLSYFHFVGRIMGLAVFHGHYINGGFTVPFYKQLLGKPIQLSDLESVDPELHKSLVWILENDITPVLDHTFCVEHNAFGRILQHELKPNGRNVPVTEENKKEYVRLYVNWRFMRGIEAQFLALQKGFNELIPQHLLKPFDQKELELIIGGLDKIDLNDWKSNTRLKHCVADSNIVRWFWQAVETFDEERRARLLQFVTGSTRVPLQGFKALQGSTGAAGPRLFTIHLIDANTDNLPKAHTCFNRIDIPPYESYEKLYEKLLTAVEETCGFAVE
row,effect of a mutation on the interaction,Variant
1,disrupting interaction,MPGFDYKFLEKPKRRLLCPLCGKPMREPVQVSTCGHRFCDTCLQEFLSEGVFKCPEDQLAAAAAKIYPDPELEVQVLGLPIRCIHSEEGCRWSGPLRHLQGHLNTCSFNVIPCPNRCPMKLSRRDLPAHLQHDCPKRRLKCEFCGCDFSGEAYESHEGMCPQESVYCENKCGARMMRRLLAQHATSECPKRTQAAAACTKEFVFDTIQSHQYQCPRLPVACPNQCGVGTVAREDLPGHLKDSCNTALVLCPFKDSGCKHRCPKLAMARHVEESVKPHLAMMCALVSRQRQELQELRRELEELSVGSDGVLIWKIGSYGRRLQEAKAKPNLECFSAAAATHKYGYKLQVSAFLNGNGSGEGTHLSLYIRVLPGAFDNLLEWPFARRVTFSLLDQSDPGLAKPQHVTETFHPDPNWKNFQKPGTWRGSLDESSLGFGYPKFISHQDIRKRNYVRDDAVFIRAAVELPRKILS [P60A;L61A;D62A;Y63A;P194A;C195A;T196A;Y197A;P335A;F337A;Y338A]

# — IntAct's records for PubMed 19937093
